For test [1], the target named is T1, recombinant human FGFR3 IIIb Fc fusion protein (human, UniProt P22607-2 23-377, limits assumed).
T1 construct: Bought reagent; the IIIb splice isoform is meant; also called rhFGFR3 IIIb Fc; hFGFR3 IIIb; not shown: Fc fragment (removable by Factor Xa, detected with anti-human IgG)
T1 sequence (looked up): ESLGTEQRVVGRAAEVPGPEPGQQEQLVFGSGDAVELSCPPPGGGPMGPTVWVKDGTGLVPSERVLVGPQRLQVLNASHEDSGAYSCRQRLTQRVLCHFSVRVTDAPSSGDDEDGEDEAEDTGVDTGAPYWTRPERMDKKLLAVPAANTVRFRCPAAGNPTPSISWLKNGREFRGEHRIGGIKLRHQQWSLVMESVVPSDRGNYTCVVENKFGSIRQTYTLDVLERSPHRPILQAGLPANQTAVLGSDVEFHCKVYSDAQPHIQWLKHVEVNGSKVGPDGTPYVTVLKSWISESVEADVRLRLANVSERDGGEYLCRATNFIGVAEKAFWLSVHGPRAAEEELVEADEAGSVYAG
As to the kind of experiment: SPR (Biacore T100), antibody captured on anti-mouse Ig, rhFGFR3 IIIb Fc as analyte, 37 C. As for the experimental part:
The binding affinities and kinetics of interaction of the monoclonal antibodies (15D8, 27H2, 2G4, and 4E7(7D12)) produced in Example 1 against recombinant human FGFR3 (IIIb and IIIc isoforms) Fc fusion protein (rhFGFR3 IIIb Fc or rhFGFR3 IIIc Fc) were measured by surface plasmon resonance using a Biacore™ T100 (Biacore) instrument.
Rabbit anti-mouse immunoglobulins (Biacore, Catalog No. BR-1005-14) were immobilized on carboxymethylated dextran CM4 sensor chips (Biacore, Catalog No. BR-1005-34) by amine coupling (Biacore, Catalog No. BR-1000-50) using a standard coupling protocol according to manufacturer's instructions.
The antibodies were captured in an individual flow cell at a flow rate of 10 μl/min. Injection time was varied for each antibody to yield approximately 40-50 RU of antibody captured for each cycle. Buffer or rhFGFR3 IIIb Fc (R&D Systems, Catalog No. 1264-FR-050) or rhFGFR3 IIIc Fc (R&D Systems, Catalog No. 766-FR-050) diluted in running buffer was injected sequentially over a reference surface (no antibody captured) and the active surface (antibody to be tested) for 300 sec at 60 μl/min. The dissociation phase was monitored for 30 minutes. The surface was then regenerated with two 60-seconds injection of 10 mM Glycine-HCl, pH 1.7 (made from Glycine pH 1.5 (Biacore, Catalog No. BR-1003-54) and pH 2.0 (Biacore, Catalog No. BR-1003-55)) at a flow rate of 60 μl/min. rhFGFR3 Fc concentrations tested were 0.62 nM to 40 nM.
For orientation: Surface plasmon resonance follows binding to a sensor surface in real time, without labels.

Test [2] deals with T2, recombinant human FGFR3 IIIc Fc fusion protein (human, UniProt P22607 23-375).
T2 construct: Bought reagent; also called rhFGFR3 IIIc Fc; not shown: Fc fragment (removable by Factor Xa)
T2 sequence (looked up): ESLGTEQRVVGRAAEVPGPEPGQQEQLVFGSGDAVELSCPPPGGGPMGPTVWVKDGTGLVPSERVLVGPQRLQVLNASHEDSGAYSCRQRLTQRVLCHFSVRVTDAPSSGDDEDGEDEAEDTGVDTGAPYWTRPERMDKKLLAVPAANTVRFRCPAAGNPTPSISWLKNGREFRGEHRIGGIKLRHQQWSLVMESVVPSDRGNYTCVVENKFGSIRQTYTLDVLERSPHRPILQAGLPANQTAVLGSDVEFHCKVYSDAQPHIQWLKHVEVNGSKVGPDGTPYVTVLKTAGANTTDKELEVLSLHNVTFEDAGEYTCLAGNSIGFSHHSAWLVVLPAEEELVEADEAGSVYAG
The experiment in a line: kinetic exclusion assay (KinExA), antibody and rhFGFR3 IIIc Fc in solution, room temperature. As for the experimental part:
The binding affinities of monoclonal 15D8, chimeric 15D8, and humanized 15D8 antibodies for recombinant human FGFR3 IIIc Fc fusion protein was measured using a kinetic exclusion assay, KinExA® technology (Sapidyne Instruments, Inc.). First, beads were prepared for the purpose of detecting anti-FGFR3 antibody that is unbound to FGFR3 IIIc Fc. This was done by adding 1 ml recombinant human FGFR3IIIc Fc (R&D Systems, Inc.) 10 ug/ml in PBS to 200 mg polymethyl methacrylate (PMMA) hard beads. The suspension was mixed and rotated for two hours at room temperature. Next, the mixture was centrifuged and supernatant was discarded. The bead pellet was rinsed once with 1 ml BSA 10 mg/ml in PBS by incubation for 1 hour at room temperature with rotation. The beads were resuspended in 27 ml PBS with 0.02% NaN₃. Next, a fixed concentration of anti-FGFR3 antibody (0.5 nM) was incubated in solution with a series of FGFR3 IIIc Fc concentrations (started with 50 nM (in PBS BSA (1 mg/ml)) and serially diluted 1:2 in PBS BSA(1 mg/ml) to obtain 50 to 0.0122 nM FGFR3 III Fc) at room temperature for at least 4 hours to allow equilibrium to be reached. By measuring the amount of anti-FGFR3 antibody that is not bound to FGFR3 IIIc Fc, the KD was determined. Unbound anti-FGFR3 antibody was detected by allowing the anti-FGFR3 antibody/FGFR3 IIIc Fc solution to flow through the FGFR3 IIIc Fc PMMA beads. The anti-FGFR3 antibody captured by these beads was then detected with Cy5-conjugated anti-human secondary antibody 0.3 ug/ml (Jackson ImmunoResearch) or Cy5-conjugated anti-mouse secondary antibody (Jackson ImmunoResearch) 0.5 ug/ml in PBS BSA 1 mg/ml. The detected signal for captured anti-FGFR3 antibody is directly proportional to the remaining free binding sites, thus allowing KD determination. The experiments were repeated, varying the concentrations of anti-FGFR3 antibody or FGFR3 III Fc used in solution, and the KD was calculated with the KinExA® software using n-curve analysis.
Background: In KinExA the mixture passes briefly over coated beads that capture the unbound partner.

B1: anti-FGFR3 monoclonal antibody 15D8 (antibody, mouse IgG1, kappa)
heavy: EIQLQQSGPELVKPGASVKVSCKASGYAFTSYNMYWVKQSHGKSLEWIGYIDPYNGGTSYNQKFKGKATLTVDKSSSTAYMHLNSLTSEDSAVYYCAREGGNYEAWFAYWGQGTLVTVSAAKTTPPSVYPLAPGSAAQTNSMVTLGCLVKGYFPEPVTVTWNSGSLSSGVHTFPAVLQSDLYTLSSSVTVPSSTWPSETVTCNVAHPASSTKVDKKIVPRDCGCKPCICTVPEVSSVFIFPPKPKDVLTITLTPKVTCVVVDISKDDPEVQFSWFVDDVEVHTAQTQPREEQFNSTFRSVSELPIMHQDWLNGKEFKCRVNSAAFPAPIEKTISKTKGRPKAPQVYTIPPPKEQMAKDKVSLTCMITDFFPEDITVEWQWNGQPAENYKNTQPIMDTDGSYFVYSKLNVQKSNWEAGNTFTCSVLHEGLHNHHTEKSLSHSPGK
light: QIVLTQSPALMSASPGEKVTMTCSASSSVSYMYWYQQKPRSSPKPWIYLTSYLASGVPARFSGSGSGTSYSLTISSMEAEDAATYYCQQWSSYPLTFGAGTKLELKRADAAPTVSIFPPSSEQLTSGGASVVCFLNNFYPKDINVKWKIDGSERQNGVLNSWTDQDSKDSTYSMSSTLTLTKDEYERHNSYTCEATHKTSTSPIVKSFNRNEC
notes: also called 15D8 IgG1; murine antibody 15D8
Consider B1, for which, in test [1], the Kd (usually the equilibrium constant for the complex coming apart) was 3.2 nM; the off-rate (koff) (as a rule, a measure of how fast the partners let go of each other) worked out at 0.0003 s⁻¹; the kon – broadly, the second-order rate constant of association – is 94000 M⁻¹ s⁻¹. In test [2], the Kd was found to be 0.0806 nM.
